Paper PMC11754657

Experiments:
[1] = biological target: rabbit skeletal muscle filamentous actin (rabbit) (UniProt P68135)
[2] = biological target: rabbit skeletal muscle filamentous actin (rabbit) (UniProt P68135); remark: listed apart in the source

velocity of actin filaments in the in vitro gliding filament assay (motor domain held by anti-GFP, 10 mM KCl, 2 mM ATP, 30 °C) [1]	K ATPase: F-actin at half-maximal activation of the steady-state ATPase (NADH-coupled assay, 20 °C, 2 mM MgATP, 50 mM KCl) [2]	kcat: extrapolated maximum rate of the F-actin activated steady-state ATPase (NADH-coupled assay, 20 °C) [2]	Substance
216 nm/s	114 µM	0.87 s⁻¹	jordan (p.D1647G) MYO15A motor domain complex M15-2IQ:ELC:RLC (1:1:1) (from UniProt P60661 1-151)
473 nm/s	29.1 µM	5.8 s⁻¹	wild-type MYO15A motor domain complex M15-2IQ:ELC:RLC (1:1:1) (from UniProt P60661 1-151)
